The target of the assay is HLA-DR2(15) (human). The experiment in a line: competition assay against a standard peptide on purified HLA class II.

By IC50 is commonly meant the concentration needed to halve the response being measured.

B1: B. lentus subtilisin epitope peptide, amino acids 160-174 (peptide, UniProt P29600 160-174, looked up)
peptide: SYPARYANAMAVGAT
notes: Synthetic 15-mer; also called peptide position #54
With B1, the IC50 was determined as 127 nM.

The values above are taken from patent US20080220450A1 (DANISCO US INC GENENCOR DIVISION, published 2008).
